Experimental data as given in article PMC3760020.

Molecular target: T1, GFP-p73α wild type, O15350
T1 chain: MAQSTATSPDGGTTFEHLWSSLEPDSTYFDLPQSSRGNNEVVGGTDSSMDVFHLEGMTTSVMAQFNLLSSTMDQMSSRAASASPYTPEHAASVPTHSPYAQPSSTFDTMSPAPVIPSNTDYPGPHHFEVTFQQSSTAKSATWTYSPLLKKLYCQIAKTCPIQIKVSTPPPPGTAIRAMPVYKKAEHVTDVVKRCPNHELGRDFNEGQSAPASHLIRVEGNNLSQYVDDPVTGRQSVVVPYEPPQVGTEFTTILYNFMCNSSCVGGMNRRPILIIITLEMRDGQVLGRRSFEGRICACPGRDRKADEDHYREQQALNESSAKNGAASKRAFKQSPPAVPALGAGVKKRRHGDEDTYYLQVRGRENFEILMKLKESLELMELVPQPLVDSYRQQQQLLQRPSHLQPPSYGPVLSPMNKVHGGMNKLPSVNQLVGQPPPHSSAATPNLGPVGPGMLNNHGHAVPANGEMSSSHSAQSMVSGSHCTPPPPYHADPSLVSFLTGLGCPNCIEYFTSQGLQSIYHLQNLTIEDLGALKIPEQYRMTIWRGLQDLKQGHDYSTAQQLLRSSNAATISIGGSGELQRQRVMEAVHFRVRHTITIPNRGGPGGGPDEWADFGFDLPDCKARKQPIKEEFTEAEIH
Test: cross-linking
Details: remark: other sources report otherwise

B1: GFP-p73α wild type, O15350-1 1-636 (natural protein)
chain: T1 chain
  stoichiometry N: 4
